Reference: publication PMC5131612 (Journal of Structural Biology, 2016)

Experiments:
[1] = target: T1, His-USP1 (21-785) (human, UniProt O94782 21-785); assay: SEC-MALS
T1 sequence (looked up): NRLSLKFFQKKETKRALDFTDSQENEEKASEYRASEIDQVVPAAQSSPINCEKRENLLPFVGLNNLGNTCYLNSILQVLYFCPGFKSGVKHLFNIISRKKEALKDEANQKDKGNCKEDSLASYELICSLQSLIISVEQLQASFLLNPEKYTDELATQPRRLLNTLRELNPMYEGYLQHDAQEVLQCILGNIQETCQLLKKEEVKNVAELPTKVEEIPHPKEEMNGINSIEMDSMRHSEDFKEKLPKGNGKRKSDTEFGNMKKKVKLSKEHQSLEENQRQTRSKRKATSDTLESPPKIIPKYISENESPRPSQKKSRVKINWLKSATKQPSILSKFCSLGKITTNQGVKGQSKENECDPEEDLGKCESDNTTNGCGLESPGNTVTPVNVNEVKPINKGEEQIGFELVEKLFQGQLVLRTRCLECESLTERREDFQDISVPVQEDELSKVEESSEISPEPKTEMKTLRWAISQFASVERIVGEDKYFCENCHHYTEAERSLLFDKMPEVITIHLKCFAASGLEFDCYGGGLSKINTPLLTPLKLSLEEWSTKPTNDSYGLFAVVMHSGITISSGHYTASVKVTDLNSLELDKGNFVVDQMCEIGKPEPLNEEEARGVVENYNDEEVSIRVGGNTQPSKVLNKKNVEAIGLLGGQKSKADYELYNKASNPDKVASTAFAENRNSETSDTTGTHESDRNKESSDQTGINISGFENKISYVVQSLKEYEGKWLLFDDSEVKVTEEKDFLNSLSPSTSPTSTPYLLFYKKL

[2] = target: GST-USP12WT (24-370) (human, UniProt O75317 24-370); assay: SPR
Sequence of GST-USP12WT (24-370) (O75317 24-370): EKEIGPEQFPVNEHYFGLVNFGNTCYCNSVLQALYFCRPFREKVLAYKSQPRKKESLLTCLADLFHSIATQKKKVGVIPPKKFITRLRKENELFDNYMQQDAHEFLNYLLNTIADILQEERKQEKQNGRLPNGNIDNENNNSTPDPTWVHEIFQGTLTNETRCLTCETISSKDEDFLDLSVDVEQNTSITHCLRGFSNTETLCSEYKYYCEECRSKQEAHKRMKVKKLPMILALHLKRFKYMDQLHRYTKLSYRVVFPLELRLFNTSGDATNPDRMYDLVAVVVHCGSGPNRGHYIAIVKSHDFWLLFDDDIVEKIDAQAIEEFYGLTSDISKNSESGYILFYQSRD

- stoichiometry N [1]: 2 UAF1 per USP1
- Kd of the second binding event [2]: 325 nM
B1: UAF1FL, UAF1 (9-677) (natural protein)
chain: not shown
